Source: patent US20180079808A1 (AbbVie / Abbott, published 2018)

T1: rat rIL-13 (rat, UniProt P42203 19-131, limits assumed)
T1 sequence (looked up): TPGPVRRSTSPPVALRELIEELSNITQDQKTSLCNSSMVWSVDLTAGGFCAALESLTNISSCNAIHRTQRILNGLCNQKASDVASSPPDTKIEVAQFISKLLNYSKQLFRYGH

B1: 9C11 (antibody, V domains shown)
VH: QVRLQQPGAELVRPGASVKLSCKASGYTFTSSWIHWVNQRPGQGLEWIGMIHPSDSETRLNQKFKDKATLTVDKSSSTAYMQLSSPTSEDSAVYYCASTATDFDYWGQGTTLTVSS
VL: DVVLTQTPLSLPVNIGDQASISCRSTQTLLNSDGFTYLDWYLQKPGQSPQLLIYLVSNRFSGVPDRFSGSGSGTDFTLKISRVEAEDLGVYYCFQNNYLPLTFGAGTKLELKR
B2: 13C5.5, humanized recombinant immunoglobulin IgG1 (IgG1, κ) monoclonal antibody (antibody, V domains shown)
VH: EVTLRESGPGLVKPTQTLTLTCTLYGFSLSTSDMGVDWIRQPPGKGLEWLAHIWWDDVKRYNPALKSRLTISKDTSKNQVVLKLTSVDPVDTATYYCARTVSSGYIYYAMDYWGQGTLVTVSS
VL: DIQMTQSPSSLSASVGDRVTISCRASQDIRNYLNWYQQKPGKAPKLLIFYTSKLHSGVPSRFSGSGSGTDYTLTISSLQPEDIATYYCQQGNTLPLTFGGGTKVEIK
B3: Fab portion of 13C5.5 antibody (Fab, V domains shown)
VH: B2 VH
VL: B2 VL
notes: Fab used for the crystal structure with human IL-13; also called 13C5.5 Fab
B4: 5G1 (antibody, V domains shown)
VH: QVQLQQSGAELARPGTSVKLSCKASGYTFTTYGVSWVKQRTGQGLEWIGEIYPGNYNTYYNEKFRGKATLTADKSSSTAYMQLSSLTSEDSAVYFCSRWRTSYFSDYGYFDYWGQGTTLTVSS
VL: DVVMTQTPLSLPVSLGDQASISCRSSQSLVHSHGNTYLHWYLQKPGQSPKLLIYTVSNRFSGVPDRFSGSGSGTDFTLKISRVEAEDLGVYFCSQSTHVPYTFGGGTKLEIKR

Legend:
cynomolgus monkey rIL-13 [1] = biological target: T2, cynomolgus monkey rIL-13 (cynomolgus monkey, UniProt Q0PW92 21-132); assay: cell-based or functional assay
T2 sequence (Q0PW92 entry or part of it): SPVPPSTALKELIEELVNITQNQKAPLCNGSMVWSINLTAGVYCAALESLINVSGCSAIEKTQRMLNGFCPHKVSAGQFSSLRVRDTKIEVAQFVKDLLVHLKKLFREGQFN

human IL-13 wild type [2] = biological target: T3, human IL-13 wild type (human, UniProt P35225 35-146, limits assumed); assay: cell-based or functional assay
T3 sequence (P35225 other isoform, or with tags, fused parts or gaps limits assumed): as the sequence (Q0PW92 entry or part of it) above, with S1G, K10R, V42M, N67S, R83H, V100L, Q110R counted along it

[3] = biological target: T4, human IL-13 variant (R130Q) (human, UniProt P35225 35-146, limits assumed); assay: cell-based or functional assay
T4 sequence (P35225 35-146 limits assumed, stated change not applied): as the sequence (Q0PW92 entry or part of it) above, with S1G, K10R, V42M, N67S, R83H, V100L counted along it

[4] = biological target: T4, human IL-13 variant (R130Q); assay: column 'Affinity, KD (nM)', hIL-13v; method not given
human IL-13 wild type [5] = biological target: T3, human IL-13 wild type; assay: column 'Affinity, KD (nM)', hIL-13wt; method not given
cynomolgus monkey rIL-13 [6] = biological target: T2, cynomolgus monkey rIL-13; assay: cell-based or functional assay; remark: listed apart in the source
rat rIL-13 = biological target: T1, rat rIL-13; assay: cell-based or functional assay
human IL-13 wild type [7] = biological target: T3, human IL-13 wild type; assay: crystal structure of the complex

| Binder | Potency, IC50 (neutralisation of Cyno IL-13; assay not given) (cynomolgus monkey rIL-13 [1]) [nM] | Potency, IC50 (neutralisation of hIL-13wt; assay not given) (human IL-13 wild type [2]) [nM] | Potency, IC50 (neutralisation of hIL-13v; assay not given) [3] [nM] | Kd [4] [nM] | Kd (human IL-13 wild type [5]) [nM] | fold lower in vitro potency compared to human rIL-13 (cynomolgus monkey rIL-13 [6]) [fold] | half maximal inhibitory concentration (IC50), in vitro neutralization (cynomolgus monkey rIL-13 [6]) [nM] | IC50, in vitro neutralization (rat rIL-13) [nM] | fold lower in vitro potency compared to human rIL-13 (rat rIL-13) [fold] | binding result (human IL-13 wild type [7]) |
| --- | --- | --- | --- | --- | --- | --- | --- | --- | --- | --- |
| B1 | 0.64 | 0.184 | 0.17 | 0.092 | 0.112 |  |  |  |  |  |
| B2 |  |  |  |  |  | 51 | 4.1 | 12.4 | 155 |  |
| B3 |  |  |  |  |  |  |  |  |  | binds |
| B4 | 0.612 | 0.076 | 0.048 | 0.13 | 0.008 |  |  |  |  |  |
